Data on four molecules can be found in patent US20190233528A1 (published 2019).

The chains are these.
T1: human CD70 expressed on parental (WT) Jurkat cells (human, UniProt P32970 1-193)
T1 sequence: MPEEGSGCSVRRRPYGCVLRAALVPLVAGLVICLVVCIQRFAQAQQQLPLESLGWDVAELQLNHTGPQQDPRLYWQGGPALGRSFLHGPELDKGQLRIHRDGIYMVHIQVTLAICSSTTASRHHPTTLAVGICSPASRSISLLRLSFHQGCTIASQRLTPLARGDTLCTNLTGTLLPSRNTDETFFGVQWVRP

T2: recombinant biotinylated human CD70 protein (human, UniProt P32970 39-193, biotinylated (site not stated))
T2 construct: also called recombinant biotinylated hCD70 protein
T2 sequence: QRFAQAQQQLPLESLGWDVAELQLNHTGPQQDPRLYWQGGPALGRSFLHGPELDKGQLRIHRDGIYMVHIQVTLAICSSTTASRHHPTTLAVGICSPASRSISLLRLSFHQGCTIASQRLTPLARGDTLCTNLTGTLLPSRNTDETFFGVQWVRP

B1: P13F04 CD70-specific CAR (other)
chain: QVQLVQSGAEVKKPGSSVKVSCKASGGTFSSYAISWVRQAPGQGLEWMGEIIPIFGTASYAQKFQGRVTITADESTSTAYMELSSLRSEDTAVYYCARAGWDDSWFDYWGQGTLVTVSSGGGGSGGGGSGGGGSGGGGSELQSVLTQPPSASGTPGQRVTISCSGSNSNIGTNYVSWYQQLPGTAPKLLIYRSSRRPSGVPDRFSGSKSGTSASLAISGLRSEDEADYYCAAWDGSLSGHWVFGTGTKLTVLTTTPAPRPPTPAPTIASQPLSLRPEACRPAAGGAVHTRGLDFACDIYIWAPLAGTCGVLLLSLVITLYCKRGRKKLLYIFKQPFMRPVQTTQEEDGCSCRFPEEEEGGCELRVKFSRSADAPAYQQGQNQLYNELNLGRREEYDVLDKRRGRDPEMGGKPRRKNPQEGLYNELQKDKMAEAYSEIGMKGERRRGKGHDGLYQGLSTATKDTYDALHMQALPPR
notes: Chimeric antigen receptor on transduced Jurkat cells; the signal peptide is left out
B2: P12G07 CD70-specific CAR (other)
chain: EVQLLESGGGLVQPGGSLRLSCAASGFTFNNFAMSWVRQAPGKGLEWVSGISGSGDNTYYADSVKGRFTISRDNSKNTLYLQMNSLRAEDTAVYYCAKDRDIGLGWYSYYLDVWGQGTLVTVSSGGGGSGGGGSGGGGSGGGGSELQSVLTQPPSASGTPGQRVTISCSGSSSNIGSNYVYWYQQLPGTAPKPLIYMNNQRPSGVPDRFSGSKSGTSASLAISGLRSEDEADYYCAAWDDSLSAVVFGTGTKLTVLTTTPAPRPPTPAPTIASQPLSLRPEACRPAAGGAVHTRGLDFACDIYIWAPLAGTCGVLLLSLVITLYCKRGRKKLLYIFKQPFMRPVQTTQEEDGCSCRFPEEEEGGCELRVKFSRSADAPAYQQGQNQLYNELNLGRREEYDVLDKRRGRDPEMGGKPRRKNPQEGLYNELQKDKMAEAYSEIGMKGERRRGKGHDGLYQGLSTATKDTYDALHMQALPPR
notes: as for B1
B3: P15D02 CD70-specific CAR (other)
chain: EVQLVQSGAEVKKPGESLKISCKGSGYSFASYWIGWVRQMPGKGLEWMGVIYPGTSETRYSPSFQGQVTISADKSISTAYLQWSSLKASDTAMYYCAKGLSASASGYSFQYWGQGTLVTVSSGGGGSGGGGSGGGGSGGGGSELDIQMTQSPSSLSASVGDRVTITCRASQSIDTYLNWYQQKPGKAPKLLIYSASSLHSGVPSRFSGSGSGTDFTLTISSLQPEDFATYYCQQSYSTTAWTFGQGTKVEIKTTTPAPRPPTPAPTIASQPLSLRPEACRPAAGGAVHTRGLDFACDIYIWAPLAGTCGVLLLSLVITLYCKRGRKKLLYIFKQPFMRPVQTTQEEDGCSCRFPEEEEGGCELRVKFSRSADAPAYQQGQNQLYNELNLGRREEYDVLDKRRGRDPEMGGKPRRKNPQEGLYNELQKDKMAEAYSEIGMKGERRRGKGHDGLYQGLSTATKDTYDALHMQALPPR
notes: as for B1
B4: P16C05 CD70-specific CAR (other)
chain: EVQLVQSGAEVKKPGESLKISCKGSGYSFTDYWIGWVRQMPGKGLEWMGMISPGGSTTIYRPSFQGQVTISADKSISTAYLQWSSLKASDTAMYYCAREMYTGGYGGSWYFDYWGQGTLVTVSSGGGGSGGGGSGGGGSGGGGSELDIQMTQSPSSLSASVGDRVTITCRASQSIGQSLNWYQQKPGKAPKLLIYGASSLQSGVPSRFSGSGSGTDFTLTISSLQPEDFATYYCQQSYSTPITFGQGTKVEIKTTTPAPRPPTPAPTIASQPLSLRPEACRPAAGGAVHTRGLDFACDIYIWAPLAGTCGVLLLSLVITLYCKRGRKKLLYIFKQPFMRPVQTTQEEDGCSCRFPEEEEGGCELRVKFSRSADAPAYQQGQNQLYNELNLGRREEYDVLDKRRGRDPEMGGKPRRKNPQEGLYNELQKDKMAEAYSEIGMKGERRRGKGHDGLYQGLSTATKDTYDALHMQALPPR
notes: as for B1

The target of one assay is T1, human CD70 expressed on parental (WT) …. Nature of the assay: cell-based or functional assay.
Regarding B1, the “Activation ratio (WT/KO)” value stood at 4.32.
Turning to B2, the “Activation ratio (WT/KO)” value came to 11.6.
Same read-out and setting: under B3 stands 2.6; under B4, 2.26.

A further assay addresses T2, recombinant biotinylated human CD70 …. As to the kind of experiment: flow cytometry: CAR-transduced Jurkat cells incubated with recombinant biotinylated human CD70, streptavidin-PE; percent of cells binding. As to the method:
On Day 5, transduced cells were stained with human anti-CD69 antibody conjugated to PE-Cy7 and acquired on a flow cytometer to obtain percentage of CD69+ population for each CAR. […] Activation ratios (WT activation/KO activation) and protein binding were used to rank CARs.
Table 7: Activation ratio and protein binding of phage CARs were determined in the Jurkat screen. Activation ratio was used for in vitro characterization of CARs. Activation ratio was determined by calculating the ratio of the percentage of CD69 expression on WT Jurkat cells transduced with CD70 CAR (WT) to that on CD70 knockout Jurkat cells transduced with CD70 CAR (KO). A higher activation ratio indicates target-dependent activation. […] Protein binding values indicate the percentage of CD3+ CAR T cells that bind to human CD70 protein.
In general terms: Flow cytometry measures light scatter and fluorescence of single cells or particles in a stream.
As for B1, the “Protein binding (%)” value was 37.5%.
In the case of B2, the “Protein binding (%)” value stood at 15.5%.
Take B3: the “Protein binding (%)” value was 62%.
Regarding B4, the “Protein binding (%)” value came out at 70.8%.
